Results reported in patent US20020098537.

Experiments:
[1] = target: T1, novel protein having inhibitory activity on the protease activity of HGF activator (HAI-I), purified from MKN45 cell culture supernatant
T1 sequence (O43278 36-529, looked up): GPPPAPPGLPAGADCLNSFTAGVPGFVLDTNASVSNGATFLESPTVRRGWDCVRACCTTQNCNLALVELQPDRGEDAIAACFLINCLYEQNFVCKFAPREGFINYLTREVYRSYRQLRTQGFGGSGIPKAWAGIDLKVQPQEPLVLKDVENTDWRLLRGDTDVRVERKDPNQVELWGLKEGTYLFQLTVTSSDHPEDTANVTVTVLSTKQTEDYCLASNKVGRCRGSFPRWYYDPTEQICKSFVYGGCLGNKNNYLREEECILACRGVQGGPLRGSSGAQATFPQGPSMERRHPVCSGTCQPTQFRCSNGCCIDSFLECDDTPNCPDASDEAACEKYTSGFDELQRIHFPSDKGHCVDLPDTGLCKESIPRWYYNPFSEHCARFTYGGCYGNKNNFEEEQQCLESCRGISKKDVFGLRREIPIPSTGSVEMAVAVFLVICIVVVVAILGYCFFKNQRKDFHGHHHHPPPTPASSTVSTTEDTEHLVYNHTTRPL

[2] = target: single chain HGF (hepatocyte growth factor), P14210
Sequence of single chain HGF (hepatocyte growth factor), P14210 (P14210 32-728): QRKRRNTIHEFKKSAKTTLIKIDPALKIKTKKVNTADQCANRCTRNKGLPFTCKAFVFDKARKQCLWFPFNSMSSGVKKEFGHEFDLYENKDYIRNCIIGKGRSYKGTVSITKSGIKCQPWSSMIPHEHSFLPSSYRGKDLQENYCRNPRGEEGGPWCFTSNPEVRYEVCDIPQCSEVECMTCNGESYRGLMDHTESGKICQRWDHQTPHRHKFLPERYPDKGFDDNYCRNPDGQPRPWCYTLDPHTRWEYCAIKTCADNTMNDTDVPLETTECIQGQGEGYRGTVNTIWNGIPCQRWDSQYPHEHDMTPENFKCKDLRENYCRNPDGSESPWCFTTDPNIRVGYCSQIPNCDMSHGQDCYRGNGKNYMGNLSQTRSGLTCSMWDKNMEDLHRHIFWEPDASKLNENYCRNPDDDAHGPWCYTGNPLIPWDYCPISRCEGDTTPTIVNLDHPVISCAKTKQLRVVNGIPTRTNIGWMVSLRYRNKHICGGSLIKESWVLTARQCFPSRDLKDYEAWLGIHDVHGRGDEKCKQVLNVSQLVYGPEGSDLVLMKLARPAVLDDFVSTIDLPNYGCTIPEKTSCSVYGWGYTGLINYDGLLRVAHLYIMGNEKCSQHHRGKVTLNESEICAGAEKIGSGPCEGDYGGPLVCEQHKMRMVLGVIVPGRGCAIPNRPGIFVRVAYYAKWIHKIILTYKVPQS

B1: serum-derived hepatocyte growth factor activator (HGF activator) (protein)
chain: VQLSPDLLATLPEPASPGRQACGRRHKKRTFLRPRIIGGSSSLPGSHPWLAAIYIGDSFCAGSLVHTCWVVSAAHCFSHSPPRDSVSVVLGQHFFNRTTDVTQTFGIEKYIPYTLYSVFNPSDHDLVLIRLKKKGDRCATRSQFVQPICLPEPGSTFPAGHKCQIAGWGHLDENVSGYSSSLREALVPLVADHKCSSPEVYGADISPNMLCAGYFDCKSDACQGDSGGPLACEKNGVAYLYGIISWGDGCGRLHKPGVYTRVANYVDWINDRIRPPRRLVAPS
[1]
  conversion of single chain HGF to double chain HGF by HGF activator (SDS-PAGE under reducing conditions, CBB staining); 10 ng protein, 5 ng HGF activator, 10 ug single chain HGF: Addition of the protein resulted in suppression of the activity of HGF activator converting single chain HGF to double chain HGF.
[2]
  conversion of single chain HGF to double chain HGF (SDS-PAGE under reducing conditions, CBB staining): the activity of HGF activator converting single chain HGF to double chain HGF
